Results on six molecules are retold here after patent US10434170B2, “Immunoregulatory vaccine” (S-TARGET THERAPEUTICS GMBH, priority 2012, dated 2019).

One assay has as its system G17RM. The assay is described as follows: Balb/c mice immunized with TYG100 vaccine, serum IgG titre against G17RM. Type of assay: in vivo, mouse. As to conditions: peptide immunized without the warhead, Example 14. Here is the method: 6 Balb/c Mice were immunized 3 times on day 0, day 14 and day 35 with TYG100_1RM or G17_1RM (without warhead) containing rhesus monkey G17 (58.4 μg/shot in 0.5 ml). Two weeks after last immunization, serum was taken and analyzed for the presence of IgG antibodies against G17RM, G17H and G17M (=G17 from the mouse)
6 Balb/c Mice were immunized 3 times on day 0, day 14 and day 35 with TYG100_2RM containing the first 13 immuno acids of rhesus monkey G17 (66.8 μg/shot in 0.5 ml). Two weeks after last immunization, serum was taken and analyzed for the presence of IgG antibodies against G17RM, G17H and G17M (=G17 from the mouse)

The test system of assay [1] is PBMC of Der p1 sensitized rhesus monkeys. The assay is described as follows: Warhead mediated enhanced antigen presentation, PBMC proliferation (Example 7). Type of assay: cell-based, rhesus monkeys (macaca mulatta). As for the experimental part: […] proliferation (assayed by the incorporation of [^3H]-thymidine) of Rhesus monkey (macaca mulatta) T cells after pre incubation for 30 ‘on ice with respectively warhead and Der p1 or warhead and immunogen 3. After each pre-incubation the cells were washed. (bdl=below detection limit). • Only when the immunogen could interact with the warhead through its coil (immunogen3) T cell proliferation in a dose dependent fashion could be seen. […] As positive control Der p1 is shown to be reactive after overnight incubation (without washing). • Warhead mediated antigen uptake is more efficient than uptake through pinocytosis
PBMC (100.000/well) of Der p1 sensitized rhesus monkeys (macaca mulatta) were preincubated (30 min on ice) with 1 μg/ml of warhead ScFV and washed 3 times with PBS or preincubated with PBS only and washed three times. Subsequently these cells incubated (30 min on ice) with different concentrations of Immunogen 3 or Der p1 at 3 μg/ml and washed 3 times with PBS after which the cells were culture at 37° C./5% CO2 in the presence of 20 U/ml IL-2 for 48 hours. As a positive control PBMCs (without warhead preincubation) were incubated with 3 μg/ml Der Pb without washing and cultured at 37° C./5% CO2 in the presence of 20 U/ml IL-2. Proliferation was assayed by the incorporation of [^3H]-thymidine (0.5 μCi/well) during the final 18 hrs of a 2-day culture. Cells were harvested for β-scintillation counting (Topcount NXT, Packard, Ramsey, Minn., USA). Results are shown as counts per minute.

Assay [2] shares this test system. Nature of the assay: IL-10 and GM-CSF ELISA in supernatants of PBMC of Der p1 sensitized rhesus monkeys (Example 6). It counts as cell-based, rhesus monkeys (macaca mulatta). As to conditions: 3 and 5 μg/ml immunogen 3 vs Der p1, parallel cultures. Here is the method:
(§1) PBMCs from Der p1 sensitized rhesus monkeys (macaca mulatta) were cultured in triplicate with Der p1 or immunogen 3. Proliferation was assayed by the incorporation of [^3H]-thymidine. Results are shown as counts per minute.
(§2) PBMC (100.000/well) of Der p1 sensitized rhesus monkeys (macaca mulatta) were cultured in triplicate with medium, 3 Der p1 or 3 and 5 μg/ml immunogen 3 at 37° C./5% CO2. in the presence of 20 U/ml IL-2. Proliferation was assayed by the incorporation of [^3H]-thymidine (0.5 μCi/well) during the final 18 hrs of a 2-day culture. Cells were harvested for β-scintillation counting (Topcount NXT, Packard, Ramsey, Minn., USA). Results are shown as counts per minute. In addition from parallel cultures, supernatants were assayed in duplicate for IL-10 and GM-CSF levels using a commercially-available ELISA kit (U-Cytech, Utrecht, The Netherlands) in accordance with the manufacturer's instructions.

For assay [3] the test system is unchanged. The assay is described as follows: Proliferation ([3H]-thymidine) of PBMC of Der p1 sensitized rhesus monkeys (Example 6). Type of assay: cell-based, rhesus monkeys (macaca mulatta). The following applies: 3 and 5 μg/ml immunogen 3 vs Der p1, 2-day culture, 20 U/ml IL-2. As for the experimental part:
as §1, §2

In a further assay the test system is ScFV-1-coil. Nature of the assay: Mice immunized with ScFV-1-coil or warhead, serum IgG1 and IgG2a ELISA against ScFV-1-coil. Type of assay: in vivo. As to conditions: s.c. 2× 35 μg d0, d14, on Alum or in PBS, sera day 28. Here is the method: (§3) 24 mice (6/group) were immunized s.c. 2× with 35 μg in 150 μl ScFV-1-coil or with warhead (ScFV-1-coil-M362) either formulated on Alum or diluted in PBS. Immunizations were done on d0, and d14, sera were taken on d0 (before immunization) and d28 and analyzed for IgG1 and IgG2a against ScFV-1-coil (indicated as ScFV) and mAb IV.3 by standard ELISA.

The next assay has as its system mAb IV.3. The assay is described as follows: Mice immunized with ScFV-1-coil or warhead, serum IgG1 and IgG2a ELISA against mAb IV.3. Type of assay: in vivo, mouse. The following applies: s.c. 2× 35 μg d0, d14, on Alum or in PBS, sera day 28. As for the experimental part: as §3
For orientation: ELISA stands for enzyme-linked immunosorbent assay.

The test system of assay [4] is PBMC of Der p1 sensitized normal donors. The assay is described as follows: Stimulation of human PBMC with immunogen 5-12, IL-10 and IFNg ELISA (Example 10). Type of assay: cell-based. The following applies: 24 h, 5, 1 or 0.5 μg/ml vs 3 μg/ml Der p1. As for the experimental part:
PBMCs of healthy human donors were cultured for 24 h in triplicate with Der p1 or immunogen 5. Supernatants were harvested and assayed for IL-10 and […] levels (each indicated as pg/ml; BDL=below detection limit) • Human T cells respond equally well to immunogen 5 as to Der p1, as measured by IL-10 and IFNg induction.
PBMC (100.000/well) of Der p1 sensitized normal donors were cultured in triplicate with medium, 3 μg/ml Der p1 or 5, 1 or 0.5 μg/ml immunogen 5-12 (Immo5-12) at 37° C./5% CO2 for 24 h. Supernatants were assayed in duplicate for IL-10 and IFNg levels using a commercially-available ELISA kits (eBioscience) in accordance with the manufacturer's instructions.

[5] abbreviates: PBMC preincubated with 1 μg/ml warhead ScFV, washed, incubated 30 min on ice with antigen, cultured 48 hours.

Where no end group is shown, it is not given here. [ ]: non-standard residue; d: D form. pGlu = O=C1CC[C@@H](C(=O)O)N1

As for “[pGlu]GPWMEEEEAAYGGGSGGKVSALKEKVSALKEKVSALKEKVSALKEKVSALKE [G17-peptide]”, the “response against G17” value in the assay with G17RM is reported as “no response”.

B1: immunogen 3: SEQ ID 23/74: Der P1 and Der P2 T cell epitopes with His tag, linker and pepK coil (protein)
chain 1: HHHHHHYYRYVAREQSCRRPNAQRFGISNYCQIYPPNVNKIREALAQTHSAIAVDLRQMRTVTPIRMQGGCGSCWAFSGVAATESAYLQQYDIKYTWNVPKIAPKSENVVVTVKVMGDDGVLACAIATHAKIRDDAFRHYDGRTIIQRDNGYQPNYHAVNIVGYSNAQGVDYWIVRNSWDTNWHEIKKVLVPGCHGSEPCIIHRGKPFGGGSGGGSCGGKVSALKEKVSALKEKVSALKEKVSALKEKVSALKE
chain 2: HHHHHHYYRYVAREQSCRRPNAQRFGISNYCQIYPPNVNKIREALAQTHSAIAVDLRQMRTVTPIRMQGGCGSCWAFSGVAATESAYLQQYDIKYTWNVPKIAPKSENVVVTVKVMGDDGVLACAIATHAKIRDDAFRHYDGRTIIQRDNGYQPNYHAVNIVGYSNAQGVDYWIVRNSWDTNWHEIKKVLVPGCHGSEPCIIHRGKPFGGGSGGGSGGKVSALKEKVSALKEKVSALKEKVSALKEKVSALKE
modifications: Immunogen-coil
As to B1, the “proliferation of PBMC” value is “dose dependent stimulation” in assay [1] (setting [5]) and “did not lead to proliferation” in assay [1] (preincubated immunogen in the absence of warhead (data not shown)). Besides, the “stimulation relative to positive control” value in assay [1] (after warhead ScFV preincubation, positive control = PBMC cultured 48 h with 3 μg/ml Der p1 without washing) is “even higher than the positive control”. The “cytokine production (IL-10 and GM-CSF), response compared with Der p1” value in assay [2] is “non-significant difference”. Besides, the “proliferation, response compared with Der p1” value in assay [3] is given as “non-significant difference”.

B2: warhead (conjugate)
scFv: EVQLQQSGPELKKPGETVKISCKASGYTFTNYGMNWVKQAPGKGLKWMGWLNTYTGESIYPDDFKGRFAFSSETSASTAYLQINNLKNEDMATYFCARGDYGYDDPLDYWGQGTSVTVSSGGGGSGGGGSGGGGSDIVMTQAAPSVPVTPGESVSISCRSSKSLLHTNGNTYLHWFLQRPGQSPQLLIYRMSVLASGVPDRFSGSGSGTAFTLSISRVEAEDVGVFYCMQHLEYPLTFGAGTKLELKGSISAWSHPQFEKGPEVSALEKEVSALEKEVSALEKEVSALEKEVSALEK
Regarding B2, in the assay with ScFV-1-coil, the “IgG1 response to ScFV-1-coil” value is “strong” and the “IgG2a response to ScFV-1-coil” value is listed as “strong”. Moreover, in the assay with mAb IV.3, the “IgG1 response to mAb IV.3” value is “strong” and the “IgG2a response to mAb IV.3” value is reported as “strong”.

B3: ScFV-1-coil: SEQ ID 70: ScFV derived from anti-CD32a mAb IV.3 with StrepTag II and pepE coil (protein)
scFv: EVQLQQSGPELKKPGETVKISCKASGYTFTNYGMNWVKQAPGKGLKWMGWLNTYTGESIYPDDFKGRFAFSSETSASTAYLQINNLKNEDMATYFCARGDYGYDDPLDYWGQGTSVTVSSGGGGSGGGGSGGGGSDIVMTQAAPSVPVTPGESVSISCRSSKSLLHTNGNTYLHWFLQRPGQSPQLLIYRMSVLASGVPDRFSGSGSGTAFTLSISRVEAEDVGVFYCMQHLEYPLTFGAGTKLELKGSISAWSHPQFEKGPEVSALEKEVSALEKEVSALEKEVSALEKEVSALEK
modifications: ScFV-coil
As to B3, in the assay on ScFV-1-coil, the “IgG1 response to ScFV-1-coil” value is on record as “only in the presence of Alum” and the “IgG2a response to ScFV-1-coil” value is “no IgG2a response”.

B4: Der p1: house dust mite allergen used as comparator antigen (protein)
chain: TNACSINGNAPAEIDLRQMRTVTPIRMQGGCGSCWAFSGVAATESAYLAYRNQSLDLAEQELVDCASQHGCHGDTIPRGIEYIQHNGVVQESYYRYVAREQSCRRPNAQRFGISNYCQIYPPNVNKIREALAQTHSAIAVIIGIKDLDAFRHYDGRTIIQRDNGYQPNYHAVNIVGYSNAQGVDYWIVRNSWDTNWGDNGYGYFAANIDLMMIEEYPYVVIL
For B4, the “proliferation of PBMC” value in assay [1] (setting [5]) is “did not lead to proliferation”.

B5: immunogen 5: SEQ ID 30/75: ~29 T cell epitopes of ten Der p allergens with His tag, linkers and pepK coil (protein)
chain 1: GVLACAIATHAKIREQERLVKLETVKKSLEQEVRTLHVRIEEVEANALAGGDLRQMRTVTPIRMQGGCGSCWEAHEQQIRIMTTKLKEAEARQQYDIKYTWNVPKIAVNIVGYSNAQGVDYWIVRNSWDTNWYHNPHFIGNRSVITHLMEDLKGELDMRNIQVRGLKQMKRVGDANVKSEDDAFRHYDGRTIIQRDNGYQPNYLDEYWILTAAHCVDGQTVSKLIRSKVLGEKISYYRYVAREQSCRRPNAQRFGISNYCVVVTVKVMGDDELHTYFNVNYTMHYYLNNGATRDILDEYWILTAAHCVAGQTASKLSIRYNSLKHSLFKYRPFKVNELNLEGEFGRELQHKFRLMRNSQMEVEEGGGSHHHHHHGGGSCGGKVSALKEKVSALKEKVSALKEKVSALKEKVSALKE
chain 2: GVLACAIATHAKIREQERLVKLETVKKSLEQEVRTLHVRIEEVEANALAGGDLRQMRTVTPIRMQGGCGSCWEAHEQQIRIMTTKLKEAEARQQYDIKYTWNVPKIAVNIVGYSNAQGVDYWIVRNSWDTNWYHNPHFIGNRSVITHLMEDLKGELDMRNIQVRGLKQMKRVGDANVKSEDDAFRHYDGRTIIQRDNGYQPNYLDEYWILTAAHCVDGQTVSKLIRSKVLGEKISYYRYVAREQSCRRPNAQRFGISNYCVVVTVKVMGDDELHTYFNVNYTMHYYLNNGATRDILDEYWILTAAHCVAGQTASKLSIRYNSLKHSLFKYRPFKVNELNLEGEFGRELQHKFRLMRNSQMEVEEGGGSHHHHHHGGGSCGGKVSALKEKVSALKEKVSALKEKVSALKEKVSALKE
modifications: Immunogen-coil
For B5, in assay [4], the “IFNg induction, response compared with Der p1” value is on record as “equally well” and the “IL-10 induction, response compared with Der p1” value is given as “equally well”.
